Data published in PMC6564688 (Nature structural & molecular biology, 2019).

Key:
chicken Otop3 (chicken) = test: cryo-EM structure
cryo-EM structure = molecular target: the molecule itself; test: cryo-EM structure

stoichiometry N (chicken Otop3 (chicken)) | Molecule | stoichiometry N (cryo-EM structure)
2 | chicken Otop3 (natural protein) | –
– | zebrafish Otop1 (natural protein, UniProt Q7ZWK8 1-586, looked up) MVEHGGTDSMWLNKYNPAAASSASSSSSSDAENKLFSRLKVSLTKKYPQKNAELLSAQYGTNLLLLGVSVMLALAAQSGPVKEEHLLSFITVLMLVQLVWMLCYMIRRERERSPVPERDAHAGASWIRGGLTMLALLSLIMDAFRIGYFVGYHSCISAALGVYPIVHALHTISQVHFLWFHIKDVIKKYETFERFGVIHAVFTNLLLWCNGVMSETEHFMHNHRRRLIEMGYANLSTVDVQPHCNCTTSVCSMFSTSLYYLYPFNIEYHIFVSAMLFVMWKNIGRTLDRHSNRKRRSTGSTGLLLGPLGGLVALASSVSVLVVYLIHLEKTEEMHEAAVSMFYYYGVAMMACMCVGSGTGLLVYRMENRPMDTGSNPARTLDTELLLASSLGSWLMSWCSVVASVAEAGQKSPSFSWTSLTYSLLLVLEKCIQNLFIVESLYRRHSEEEEDAAAPQVFSVAVPPYDGILNHGYEAHDKHREAEPAAGSHALSRKQPDAPLPAGQRLDVTPGRKRQILKNICMFLFMCNISLWILPAFGCRPQYDNPLENETFGTSVWTTVLNVAIPLNLFYRMHSVASLFEVFRKV | 2
